From patent US20230146533A1, “KERATIN BD-10, PREPARATION METHOD THEREFOR AND PHARMACEUTICAL COMPOSITION AND USE THEREOF” (INSTITUTE OF MATERIA MEDICA, CHINESE ACADEMY OF MEDICAL …, priority 2019, published 2023)

System: yeast-induced fever model in rats
Assay: Yeast-induced fever model in SD rats
Type: in vivo
Details: for Body temperature 2 hours after modeling / Body temperature 4 hours after modeling / Body temperature 6 hours after modeling / Body temperature 8 hours after modeling: 20% yeast suspension 10 ml/kg s.c., SD rats
Experimental: Animals: 230-260 grams of male SD rats; Medicines: yeast (OXOID LP0021), aspirin (SIGMA A2093), protein BD-10; Instruments: electronic balance (SARTORIUS BP121S type), electronic clinical thermometer (CITIZEN CT-513W type). Experiment grouping: • Normal control group; • Model group: yeast fever model; • Positive control group: Aspirin 300 mg/kg group; • Protein BD-10, 10 mg/kg group, 50 mg/kg group.
Preparation of experimental animals: After the experimental animals adapt to the experimental environment (temperature 22° C.±2° C., relative humidity 50%±2%) for 1 day. Pre-adaptation to measure rectal temperature at 8:00 and 15:00, rats were fasted and water was taken freely 12 h before experiment, and let the animal to empty its feces before measuring the rectal temperature. Apply petroleum jelly to the electronic thermometer probe before each temperature measurement. Insert the rat rectum 2 cm (can be marked at 2 cm to ensure that the depth of each insertion is consistent), and record the body temperature after the reading is stable.
Subcutaneous injection of dry yeast to replicate rat fever model: The body temperature of the rats was measured before modeling. Qualified rats with a body temperature of 36.2-37.3° C. were selected and randomly divided into groups with 8 rats in each group. After oral administration of aspirin and different doses of protein BD-10, 20% yeast suspension (10 ml/kg) was injected subcutaneously immediately, and the normal control group was injected intraperitoneally with an equal volume of normal saline. The body temperatures of the rats were monitored after 2 hours for a total of 8 hours.
According to the body temperature measured at each time point on the day of the experiment, calculate the mean, standard deviation and standard error of the body temperature of each group of rats. The data of each group was compared with TTEST, and P<0.05 was considered as a significant difference.

B1: BD-10: recombinant keratin with amino acid sequence SEQ ID NO:1, expressed in E. coli inclusion bodies, band around 55 kD (protein, listed as Bos taurus)
chain: MSCRSYRISPGYSVTRTFSSCSAVAPKTGSRCCITAAPYRGVSCYRGLTGFGSRSVSALGSCGPRIAVGGFRAGSCNRSFGYRSGGVGGLSPPCITTVSVNESLLTPLNLEIDPNAQCVKHEEKEQIKNLNSRFAAFIDKVRFLEQQNKLLETKWQFYQNQRCCESNLEPLFNGYIETLRREAEHVEADGGRLASELNHVQEVLEGYKKKYEEEVALRATAENEFVVLKKDVDCAYLRKSDLEANVEALVEESNFLKRLYDEEIQILNAHISDTSVIVKMDNSRDLNMDCVVAEIKAQYDDIASRSRAEAESWYRNKCEEMKATVIRHGETLRRTKEEINELNRIIQRLTAEIENAKCQRTKLEAAVAEAEQQGEAALNDARCKLAGLEEALQKAKQDMACLLKEYQEVMNSKLGLDIEIATYRRLLEGEEQRLCEGVGSVNVCVSSSRGGVTCGGLTYSTTAGRQIASGPVATGGSITVLAPDSCVPCQPRASSFSCGSSRSVRFA
B1 was tested, and the “Body temperature 2 hours after modeling” value (BD-10 10 mg/kg oral) was 36.8 ± 0.05 °C, the “Body temperature 4 hours after modeling” value (BD-10 10 mg/kg oral) was 37.2 ± 0.1 °C and the “Body temperature 6 hours after modeling” value (BD-10 10 mg/kg oral) was 37.4 ± 0.1 °C. For the same molecule, the “Body temperature 8 hours after modeling” value (BD-10 10 mg/kg oral) was 37.5 ± 0.1 °C, the “Body temperature 2 hours after modeling” value (BD-10 50 mg/kg oral) was 37.0 ± 0.1 °C and the “Body temperature 4 hours after modeling” value (BD-10 50 mg/kg oral) was 37.4 ± 0.04 °C. For the same molecule, the “Body temperature 6 hours after modeling” value (BD-10 50 mg/kg oral) was 37.4 ± 0.01 °C, the “Body temperature 8 hours after modeling” value (BD-10 50 mg/kg oral) was 37.4 ± 0.09 °C and the “Effect on increase in body temperature (in words, summary)” value (BD-10, dose not stated, 2, 4, 6 and 8 hours after modeling) was “can significantly inhibit the increase in body temperature”. For the same molecule, the “Effect on body temperature of model rats (in words)” value (different doses of BD-10 (10, 50 mg/kg), most time points after modeling, vs model group P<0.05) was “can inhibit the increase in body temperature of model rats to varying degrees”.
